Test results from article PMC10233464.

Biological target: Type V collagen from human placenta (human) (UniProt P20908)
Test: ELISA; type V collagen coated on 96-well plates (10 ug/ml in carbonate coating buffer, overnight 4 °C), blocked with 0.5 % BSA in TBS; about 1.0x10^8 whole bacteria per well, 1 h at 37 °C; adhered bacteria detected with anti-serotype a or anti-serotype b whole-cell polyclonal antibody and HRP secondary; activity normalised to a reference strain set at 100 %

Sequence of UniProt P20908 (P20908 38-1605, chain 1 of 2): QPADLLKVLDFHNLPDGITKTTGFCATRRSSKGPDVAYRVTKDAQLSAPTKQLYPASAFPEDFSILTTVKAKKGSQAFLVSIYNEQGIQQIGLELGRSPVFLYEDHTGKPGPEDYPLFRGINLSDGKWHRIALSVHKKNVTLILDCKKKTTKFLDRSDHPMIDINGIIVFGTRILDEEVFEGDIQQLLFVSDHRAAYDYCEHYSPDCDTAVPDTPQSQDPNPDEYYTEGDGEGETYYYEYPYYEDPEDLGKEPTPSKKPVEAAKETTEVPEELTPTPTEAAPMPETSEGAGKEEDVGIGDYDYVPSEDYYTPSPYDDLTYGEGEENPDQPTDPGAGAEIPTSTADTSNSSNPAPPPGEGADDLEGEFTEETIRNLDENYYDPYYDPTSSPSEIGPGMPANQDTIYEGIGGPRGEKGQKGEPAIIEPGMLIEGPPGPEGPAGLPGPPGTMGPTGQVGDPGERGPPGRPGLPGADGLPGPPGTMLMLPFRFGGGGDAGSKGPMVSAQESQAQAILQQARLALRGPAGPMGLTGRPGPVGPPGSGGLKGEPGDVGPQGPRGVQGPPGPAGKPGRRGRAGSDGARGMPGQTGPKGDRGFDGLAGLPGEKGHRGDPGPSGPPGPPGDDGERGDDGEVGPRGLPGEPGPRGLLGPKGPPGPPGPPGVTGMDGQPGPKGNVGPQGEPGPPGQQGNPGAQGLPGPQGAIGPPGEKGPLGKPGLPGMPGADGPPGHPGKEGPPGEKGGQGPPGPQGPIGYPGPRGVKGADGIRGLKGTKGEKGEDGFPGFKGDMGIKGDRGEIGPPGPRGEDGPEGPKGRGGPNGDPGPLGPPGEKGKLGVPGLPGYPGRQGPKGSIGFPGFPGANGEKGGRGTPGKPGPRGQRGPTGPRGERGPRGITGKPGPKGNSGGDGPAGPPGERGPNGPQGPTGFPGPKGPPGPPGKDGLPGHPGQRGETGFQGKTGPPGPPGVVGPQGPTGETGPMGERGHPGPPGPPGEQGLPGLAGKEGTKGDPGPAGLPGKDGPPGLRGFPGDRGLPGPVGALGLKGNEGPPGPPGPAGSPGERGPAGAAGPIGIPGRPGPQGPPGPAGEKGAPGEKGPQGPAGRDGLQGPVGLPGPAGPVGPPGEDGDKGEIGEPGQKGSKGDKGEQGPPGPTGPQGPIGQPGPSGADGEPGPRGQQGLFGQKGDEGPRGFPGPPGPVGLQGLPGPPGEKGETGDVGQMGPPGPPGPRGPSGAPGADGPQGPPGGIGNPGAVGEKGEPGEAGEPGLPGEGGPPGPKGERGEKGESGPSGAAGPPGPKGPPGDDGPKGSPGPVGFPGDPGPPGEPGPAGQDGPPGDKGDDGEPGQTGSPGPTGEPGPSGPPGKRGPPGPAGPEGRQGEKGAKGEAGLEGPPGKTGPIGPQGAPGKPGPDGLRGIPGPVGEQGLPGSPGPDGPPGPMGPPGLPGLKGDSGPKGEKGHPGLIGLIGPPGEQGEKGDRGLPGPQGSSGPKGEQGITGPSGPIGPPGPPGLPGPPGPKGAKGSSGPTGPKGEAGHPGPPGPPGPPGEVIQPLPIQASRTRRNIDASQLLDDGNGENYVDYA
Sequence of UniProt P20908 (P05997 27-1229, chain 2 of 2, further chain): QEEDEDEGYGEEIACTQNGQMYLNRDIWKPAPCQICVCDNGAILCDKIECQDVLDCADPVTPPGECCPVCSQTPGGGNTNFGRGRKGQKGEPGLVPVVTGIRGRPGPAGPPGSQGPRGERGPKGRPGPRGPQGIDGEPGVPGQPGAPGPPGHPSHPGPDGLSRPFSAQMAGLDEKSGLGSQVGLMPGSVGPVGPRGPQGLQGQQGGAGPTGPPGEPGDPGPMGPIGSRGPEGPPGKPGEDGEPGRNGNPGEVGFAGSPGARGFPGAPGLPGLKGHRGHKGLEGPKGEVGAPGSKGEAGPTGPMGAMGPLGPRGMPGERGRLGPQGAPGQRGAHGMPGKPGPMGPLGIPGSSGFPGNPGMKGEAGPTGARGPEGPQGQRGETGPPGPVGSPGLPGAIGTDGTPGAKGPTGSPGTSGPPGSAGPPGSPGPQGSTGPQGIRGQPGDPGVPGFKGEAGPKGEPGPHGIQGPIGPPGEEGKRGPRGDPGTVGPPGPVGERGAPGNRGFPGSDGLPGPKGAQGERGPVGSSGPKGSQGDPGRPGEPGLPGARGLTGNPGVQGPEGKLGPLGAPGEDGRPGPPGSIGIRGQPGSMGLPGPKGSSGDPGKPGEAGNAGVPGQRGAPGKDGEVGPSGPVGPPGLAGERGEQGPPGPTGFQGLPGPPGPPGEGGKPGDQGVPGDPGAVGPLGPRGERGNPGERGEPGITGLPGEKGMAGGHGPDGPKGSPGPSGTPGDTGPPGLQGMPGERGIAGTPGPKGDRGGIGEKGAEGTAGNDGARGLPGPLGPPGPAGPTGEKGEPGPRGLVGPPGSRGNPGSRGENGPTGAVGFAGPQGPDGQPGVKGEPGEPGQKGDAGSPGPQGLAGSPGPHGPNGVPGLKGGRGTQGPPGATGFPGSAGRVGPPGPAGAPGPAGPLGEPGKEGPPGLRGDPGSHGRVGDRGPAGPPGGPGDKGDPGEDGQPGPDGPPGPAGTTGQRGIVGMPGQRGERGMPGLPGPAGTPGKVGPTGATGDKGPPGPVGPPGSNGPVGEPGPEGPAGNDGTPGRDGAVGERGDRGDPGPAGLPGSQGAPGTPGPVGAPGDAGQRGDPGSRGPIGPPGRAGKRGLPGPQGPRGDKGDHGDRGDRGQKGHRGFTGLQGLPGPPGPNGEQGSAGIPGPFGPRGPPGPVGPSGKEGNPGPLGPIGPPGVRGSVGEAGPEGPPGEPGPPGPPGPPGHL

Substance | fold increase in collagen binding over the emaA mutant strain ATCC 29523 | fold increase in collagen binding over the rmlC mutant strain | fold of the collagen binding of the serotype b wild-type strain
a-EmaA (extracellular matrix protein adhesin A, 173 kDa isoform of serotype a) expressed from pKM753 in strain ATCC 29523 (natural protein) | > 2 fold | – | –
a-EmaA expressed from a plasmid in the serotype b O-PS-deficient rmlC mutant strain (natural protein) | – | 4.6 fold | > 2 fold
